# ± gives the uncertainty stated by the source.
# Assay: amyloid nucleation score (Sup35N fusion, yeast selection) (log enrichment); library NNK1; higher = more nucleation; inactive = no reads after selection
# Summary of the method: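 The nucleation score, computed with DiMSum, is the log enrichment of output over input reads, centred on the mode score of non-aggregating sequences. Sequences with under 100 input reads were dropped. Reads were generated by Illumina sequencing of plasmid inserts from psi-negative yeast with Sup35N fused to peptides of 20 random codons, induced with 100 μM copper sulfate for 24 hours and grown 7 days at 30°C on medium lacking adenine and uracil.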
row,Substance,amyloid nucleation score
1,VNFILNF,5.41 ± 0.066
2,VNFYDLVL,0.318 ± 0.46
3,VNHCMMHEYLGGLLSSVIG,0.773 ± 0.24
4,VNLGKNFTQLLIGRCVSKVR,0.417 ± 0.33
5,VNNIVRSICGIKGEVRFLCG,0.094 ± 1.2
6,VNQFLRAMVPLKLRYRYFCL,1.02 ± 0.74
7,VNSTEGP,-0.989 ± 2.7
8,VPCMWRFTHVSKYEGKSRTL,-0.452 ± 0.42
9,VPIMYNFGINDVGSVCDCTD,7.259 ± 0.053
10,VPPCEWHRRTYR,0.176 ± 1.1
11,VPTYGFGLEIFKDFSMNR,-0.926 ± 0.44
12,VPVVDNIVSIL,-0.718 ± 1.7
13,VPVYNMNFYAVLHILSFCLD,4.18 ± 0.057
14,VPWSFLQRSWLDIWECPYKL,-0.276 ± 0.41
15,VQAKYNSSLGESNRDSDCAS,0.187 ± 0.34
16,VQDLYCIRYL,-1.39 ± 2.4
17,VQEYGASCKSMTGLGTLKCK,0.876 ± 0.81
18,VRDMHSHTLGYCRDGMYYFK,-0.403 ± 0.84
19,VRGSVLCHRSLHETKNFL,0.279 ± 0.38
20,VRGSVRCNVDYLICVYVHR,1.46 ± 0.51
21,VRHCTQINSPFYYDFN,-0.318 ± 0.3
22,VRKYRRWSRMIWGCYNNFVF,-1.44 ± 0.53
23,VRLNNCNLFFCYMTRIAFAE,4.96 ± 0.067
24,VRMKPCSLLNLGTYPAQNVM,-0.888 ± 1.9
25,VRNHVYGLCVSWTAGDKCNR,5.03 ± 0.087

row,Substance,amyloid nucleation score
1,VRNVG,-0.14 ± 0.59
2,VRNVISNKYCRAGYLTKYLL,-0.16 ± 0.22
3,VRRSEHSRLSYEWGECLRLT,-0.174 ± 0.38
4,VRSFNRGFKMHTYIPTHFLW,-0.55 ± 0.26
5,VRSKLPPGSFDSFWGWWEKK,-0.343 ± 0.45
6,VRSLAFTNVYFEEGAYVANT,-0.532 ± 0.73
7,VRSPFSIHRRFLTLGIQEFS,1.4 ± 0.74
8,VRVEKNCNFWLFSIVSCLPH,8.49 ± 0.065
9,VRVFTHSSVGREE,-0.177 ± 0.25
10,VRYEIAA,-1.06 ± 2.4
11,VSAND,-0.547 ± 0.4
12,VSCRR,inactive
13,VSDHT,1.02 ± 0.47
14,VSEHSFWIWGRVPQLTQIIA,inactive
15,VSESDKEGLEK,-1.17 ± 1.6
16,VSFIYFRVWILAMDY,0.842 ± 0.37
17,VSFRFLMGFVYVKCWSSSLD,1.38 ± 0.69
18,VSLCVSFFFYRSAVITVYAH,0.282 ± 0.58
19,VSLVAGTWFYFWHNALVTYH,-0.067 ± 0.36
20,VSNERSWMRCFFMGSRIAHG,-0.735 ± 0.4
21,VSNNYRDV,0.807 ± 0.72
22,VSNTWYLTVNLFLYIIPCN,6.755 ± 0.058
23,VSQTPWTLYLN,0.229 ± 0.26
24,VSRFFGNRRTNSNENTAGVA,-1.15 ± 0.43
25,VSRVNYNVFSVGISKSVCD,0.201 ± 0.85

row,Substance,amyloid nucleation score
1,VSSFLLRSFRKCRPLCYIVR,3.89 ± 0.085
2,VSSFWRELVPYGMVCRESSL,0.178 ± 0.56
3,VSSYAIYEECNLPGKAGKPC,-0.213 ± 0.63
4,VSTGWKRLKFQLVIGCFS,0.502 ± 0.53
5,VSTLA,inactive
6,VSVGR,-0.153 ± 1.4
7,VSVKSNGWMSWWLSWQVPKH,-0.147 ± 0.63
8,VSWDSMYMAMPWVIVHVL,inactive
9,VTDFVALFVIGTGPVVGLRW,1.27 ± 0.43
10,VTKVTLMLFLSCWLF,-0.677 ± 0.47
11,VTMDCLMLPYRKGNPN,0.996 ± 0.64
12,VTQIKPVRRLGGL,-0.692 ± 0.87
13,VTQSYDFKSLQIISIQN,1.39 ± 0.12
14,VTRYTLVYFPLSLIRSTPAN,0.62 ± 0.36
15,VTRYVPECGWKDLDLASWYL,1.34 ± 0.58
16,VTSSWNSDAFTWFYNDSWCL,inactive
17,VTWGSSPMQKFSMVQIKS,0.564 ± 0.48
18,VTYKEQNGLLLFAPDSVQRD,inactive
19,VTYTEYCSVLLKTH,-1.81 ± 2.4
20,VVAAILHKLS,-0.16 ± 0.41
21,VVASSCSFNRRLESSAGYL,0.744 ± 0.37
22,VVAVE,-0.27 ± 0.38
23,VVCFMPVLMAVQMGCSHWNY,3.55 ± 0.063
24,VVHLSLCMRCALWRYRELVC,1.12 ± 0.55
25,VVILYIDRFGVLFHHLG,0.821 ± 1.1

row,Substance,amyloid nucleation score
1,VVKVWPYYSYVSMV,-0.114 ± 0.55
2,VVLQVMFARAWWFF,0.185 ± 0.33
3,VVLRLRSSYFGGLAGMA,0.121 ± 0.33
4,VVNITYFPMVSVRLICGNVP,6.569 ± 0.063
5,VVQGCIYYCHNVWYLDVFSF,4.62 ± 0.089
6,VVSDNSMDV,0.39 ± 0.47
7,VVSVMLAFYTKDSFVVWLNL,1.02 ± 0.15
8,VVTQLLEFVSITSEGWSQHM,2.57 ± 0.096
9,VVVFSTF,-0.376 ± 1.4
10,VVVFVSE,0.997 ± 0.65
11,VVVIFLHGIWCGLRL,-0.208 ± 0.75
12,VVVRLRFRNSIPSILSQR,-0.304 ± 0.71
13,VWCVFFLVLYFYR,0.422 ± 0.57
14,VWEFD,-0.537 ± 0.42
15,VWFRCWSPEVENGHVCLSCS,-0.026 ± 0.41
16,VWFYRLIVSEVGFFRVKLKM,-1.58 ± 1.4
17,VWGDRWTTVSGRSAEYRTKS,1.34 ± 0.15
18,VWLGTEFFVSCLACMLVSVL,-1.05 ± 0.54
19,VWRSVSRCSCVSSSIGGVTV,-0.868 ± 0.39
20,VWSILCMCNRSHLWVKSSKR,0.988 ± 0.35
21,VWTSWDGRSLIAEWVCYLE,6.232 ± 0.048
22,VYFIRIHLLFRHRTGGICNT,1.06 ± 0.72
23,VYITVFMIAYMLLSDTDHE,0.377 ± 0.31
24,VYRTNLSINSTFIWTHELRS,0.525 ± 0.18
25,VYSRSWPGFLKWLLASIFF,0.694 ± 1.2

row,Substance,amyloid nucleation score
1,WASFGPLGAQVPDRRFIYMP,0.151 ± 0.81
2,WAVSGVDKVTRLGSEGVMQS,-0.809 ± 0.9
3,WCGVFESGNRPKSQGKGSKW,0.159 ± 0.55
4,WCSAMKISTRAPRWENIWSM,0.612 ± 0.62
5,WCSNVNFDVRVDNIKSFRWF,5.864 ± 0.053
6,WDETY,4.62 ± 0.07
7,WDRTTCVYSLLPMGNSPKVE,0.144 ± 0.45
8,WDTDVLRDNWSQLRFLVSGR,-0.216 ± 0.21
9,WDWSERLQAFWSVTLSSNSW,0.517 ± 0.71
10,WEYEAGNFDSVMMVLLLSCY,1.25 ± 0.61
11,WFAGAGLIMRNVRSGW,-0.126 ± 0.66
12,WFTDGT,inactive
13,WFTGGFRVIMGS,0.728 ± 0.97
14,WFWLIRMYMSFYVVAFVGSG,1.31 ± 0.74
15,WGRMV,0.248 ± 0.74
16,WHEWNSVEWVGRSWTTDFEW,inactive
17,WHSMKMCF,0.115 ± 0.45
18,WHSSSLMWHNKLS,inactive
19,WHWVAEWSMRTYSGLSIECY,inactive
20,WHYNMLYCLLRRSRLCWNIV,-0.403 ± 0.48
21,WIAFERPAYVDSWHLTRNRP,0.109 ± 0.24
22,WILVGMGLGFHFFW,0.86 ± 1.1
23,WISFYSPCMGRAISLSVVDV,0.68 ± 0.54
24,WLAHRNWLC,0.103 ± 0.7
25,WLKVGGEFSWSVQSVY,0.071 ± 0.55

row,Substance,amyloid nucleation score
1,WLKVRNTR,-0.178 ± 0.49
2,WLLVNMDDYLAGYCITHFRN,-0.359 ± 0.58
3,WLTRFRRGAACRDLLWRGER,-0.096 ± 1.4
4,WLTTGFLFVKLGGHKESSVQ,0.015 ± 0.33
5,WMAFWGWVLYYFSFHFTFNV,0.079 ± 0.48
6,WMFMNLVGVMFDGHGPGGSA,1.66 ± 0.28
7,WNRYWNLFYRGTLDSTAIGS,-1.76 ± 2.4
8,WNSSYDGRFIAYAMQWSNKE,-0.118 ± 0.48
9,WPLLPVELNVSTRHENGLLM,1.4 ± 0.34
10,WPLRESCGICERRAWCRSAY,0.923 ± 0.63
11,WPWNEPY,-0.251 ± 0.48
12,WQLTGISIWARFMFYVWQGK,-1.34 ± 0.92
13,WRARLWDLNPWHVAREMIAG,0.096 ± 0.93
14,WRGCVNFCEKKPGVGVSSV,0.076 ± 0.55
15,WRTSEFSHSLVKYVLSRVLT,1.31 ± 0.56
16,WSARHKHNTKCYFVRGQ,-0.081 ± 0.34
17,WSFVYMENVIARYEVSVG,0.296 ± 0.25
18,WSGIIELC,1.74 ± 0.78
19,WSIKFQS,-0.123 ± 0.49
20,WSRCSFFGHRYIKSSLLIWG,-0.139 ± 0.44
21,WSSKLFCIGLDLCVVDDMCF,2.44 ± 0.12
22,WSSTRPCFLFQLRMAMLLCS,0.154 ± 0.59
23,WSYAIKAISSMGAVTDASRM,-0.136 ± 0.31
24,WTAGWL,-0.065 ± 0.44
25,WTRLLD,inactive

row,Substance,amyloid nucleation score
1,WTRSM,0.018 ± 0.41
2,WVDGESAPDDERRQWICDIG,-0.948 ± 1.3
3,WVGFRQCLSASMCAPDPQTD,0.748 ± 0.8
4,WVILMMLCILRGRELSVAYW,-0.446 ± 0.99
5,WVLAVRTSNLCRRGMLYKL,-0.662 ± 0.45
6,WVLGGEFPYKRGGIAASLVL,-0.327 ± 0.84
7,WVNVTRVNGRDEGAPSIRNK,-0.787 ± 0.4
8,WVSSAAGAAGPVIYWDVALY,-0.612 ± 0.39
9,WWLRVVS,0.041 ± 0.78
10,WWSYQF,0.725 ± 0.39
11,WYHSYCVVHSFWYATSPLNS,-0.259 ± 0.33
12,WYPAANLRLVALIKGVSAVT,-2.23 ± 2.4
13,YADNSSTLMSDILFTIYRIG,1.06 ± 0.095
14,YAFARCLTHINVVALIVRMC,-1.18 ± 0.64
15,YAHGGWDLVRRNS,0.232 ± 0.86
16,YALFADACSKGALDKVFSWV,0.745 ± 1.2
17,YANTTWSLTLTTVQHRNVAD,3.35 ± 0.16
18,YARIAKRTFLVYSQNEARFE,0.843 ± 0.98
19,YASTSMWVP,-0.401 ± 0.35
20,YATGDCDVLMYRLGMNKKSS,0.488 ± 0.45
21,YAVCRLANSSGSRHVFLCHT,0.527 ± 0.31
22,YCCYAVRACFN,7.509 ± 0.057
23,YCGGY,2.9 ± 0.087
